Values quoted from earlier work as cited in article PMC10453832.

Molecular target: F-actin (Oryctolagus cuniculus) (UniProt P68135)

- Kd: 75 nM
Substance: β-III-spectrin ABD (from UniProt O15020)
